Measurements published in patent publication US20090143311A1 (published 2009).

Experiments:
[1] = biological target: angiotensin I converting enzyme (ACE); experiment: cell-based or functional assay
[2] = biological target: angiotensin I converting enzyme (ACE); experiment: cell-based or functional assay; remark: listed apart in the source

IC50 value in µM, Modified Matsui assay (ACE inhibition, cleavage of Hip-His-Leu) [1] [µM]	IC50 value in µM, at-line ACE assay (ACE inhibition, cleavage of hippuryl-His-Leu) [1] [µM]	IC50 value in the Modified Matsui test (ACE inhibition) [2] [µM]	Binder
2	7.1	–	IPP [tripeptide IPP]
0.4	3.8	0.5	MAP [tripeptide Methionine-Alanine-Proline (Met-Ala-Pro)]
10	50	–	ITP [tripeptide Isoleucine-Threonine-Proline (Ile-Thr-Pro)]
